Results taken from publication PMC4899218 (Molecular microbiology, 2016).

Key:
[1] = biological target: EDTA monooxygenase (EmoA) from Chelativorans sp. BNC1 (Chelativorans sp. BNC1); assay: SEC-MALS
EmoA = EmoA (EDTA-degrading bacterium BNC1, UniProt Q9F9T3); assay: ITC; type: binding

Molecule: EDTA monooxygenase (EmoA) from Chelativorans sp. BNC1 (enzyme)
- stoichiometry N [1]: 2

Molecule: Cc1cc2nc3c(=O)[nH]c(=O)nc-3n(C[C@H](O)[C@H](O)[C@H](O)COP(=O)(O)O)c2cc1C [FMN]
- Kd (EmoA): 0.33 µM
